In patent US6004757 one finds Km (µM) of phosphorylation of the peptide by the kinase, Km of phosphorylation of the peptide by the kinase and Ki data, which are given here for one substance.

pKi: −log10 of the molar value.

Test [1] addresses human EGF receptor (human) (UniProt P00533).
Test [2] deals with chicken pp60^v-src (chicken).
Test [3] concerns the target GST-fusion construct of src.
Test [4] deals with chicken pp60^v-src (chicken). The test is described as follows: inhibition of transphosphorylation of acid denatured enolase (1 µM) by immobilised pp60^v-src, [γ-32P]-ATP, SDS-PAGE.

For orientation: pKi means the negative decadic logarithm of the Ki, by convention in mol/L. Take “peptide Ala-Glu-Glu-Glu-Ile-Tyr-Gly-Glu-Phe-Glu-Ala-Lys-Lys-Lys-Lys”: the Km (µM) of phosphorylation of the peptide by the kinase turned out to be 34 µM in test [1] and 32.9 µM in test [2]. In addition, the Km of phosphorylation of the peptide by the kinase in test [3] is 33 µM. Further, in test [4], the pKi was 5.10.
